Columns and labels:
[1] = target: human FcγRI (CD64) on cells (human) (UniProt P12314); test: flow cytometry, fluorescein-conjugated antibody on monocytes
[2] = target: soluble fusion protein of the extracellular domain of human FcγRI and human IgM heavy chain (sFcγRI-µ) (human) (UniProt P12314); test: ELISA on captured sFcγRI-µ, against a nonspecific human IgG1 mAb
[3] = target: human FcγRI (CD64) on cells (human) (UniProt P12314); test: cell-based or functional assay

## humanized anti-FcγRI antibody H22 (KOL VH/REI Vκ mAb)
[1]
  antibody sites per cell (antibody sites per cell): 10500
[2]
  percent of binding via the Fv portion: > 95%

## murine anti-FcγRI monoclonal antibody M22
[1]
  antibody sites per cell (antibody sites per cell): 10000

## M22 Fab' x 32.2 Fab' x M22 Fab' chemically linked trivalent antibody
[3]
  FcγRI expression on monocytes in whole blood (modulation assay) (% of the level prior to BsAb treatment): 50

## chemically linked M22 Fab' multimer M22 F(ab')3+
[3]
  human CD64 surface expression on macrophages of CD64-transgenic mice (M32.2-FITC): < 50 % reduction

From patent EP1212366B1
